Test results published in patent US20220275053A1, “MODIFIED […] PEPTIDE LIGANDS” (BicycleTx Limited, priority 2019, published 2022).
*1 amine or outer side, *2 acyl side, *3 side chain or, on linkers, in order; H or OH if unused. Bridges are numbered along the chain shown (N, C = ends). [ ]: non-standard residue; d: D form. TATA = O=C(CC[*:1])N1CN(C(=O)CC[*:2])CN(C(=O)CC[*:3])C1; tBuAla = CC(C)(C)C[C@H](N)C(=O)O; Nle = CCCC[C@H](N)C(=O)O

Biological target: T1, CD137 (Homo sapiens, UniProt Q07011)
T1 construct: Human peripheral blood mononuclear cells (PBMCs) were isolated from buffy coats from two donors; endogenous in cells
T1 sequence (Q07011 24-255): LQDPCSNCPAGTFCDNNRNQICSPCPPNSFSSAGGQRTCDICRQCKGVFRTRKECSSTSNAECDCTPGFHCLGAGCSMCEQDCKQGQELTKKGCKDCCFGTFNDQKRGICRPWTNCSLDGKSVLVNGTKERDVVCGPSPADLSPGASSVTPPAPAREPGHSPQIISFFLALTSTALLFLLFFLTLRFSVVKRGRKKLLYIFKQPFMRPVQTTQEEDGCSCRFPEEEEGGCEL
Test: Fluorescent multimers human T-cell competition (receptor occupancy) assay with BCY7340 as labelling reagent
Type: binding
Settings: unlabelled multimer titrated, 30 minutes at room temperature; 10 nM BCY7340 label; FIG. 5
Protocol: Human PBMCs were isolated from fresh buffy coats from two donors according to standard protocols. CD8+ T cells were then isolated from the PBMCs by negative magnetic bead selection with a MACS CD8+ T cell isolation kit (negative bead selection) according to the manufacturer's protocol (Miltenyi Biotec). Purified CD8+ T cells were then stimulated for 72 hours in plates coated with CD3 antibody (1 μg/ml) in R10 media (RPMI1640+10% FBS+1× Pen-Strep). Cells were then incubated with a range of concentrations of unlabelled CD137 multimer for 30 minutes at room temperature in 2% FBS. Cells were then washed and stained for FACS analysis. Briefly, cells were stained in 1× Live/Dead BV510 for 15 minutes, washed, and then surface stained with a primary antibody cocktail (CD8-BV785, CD3-BV605, and CD137-PECy5) that included a saturating concentration (10 nM) of BCY7340. Cells were incubated for 30 minutes at room temperature, washed, and fixed in 2% PFA. Cells were run on the BD FACSCelesta and FCS files were analyzed in FlowJo. Cells were gated on Single/Live/Lymphocytes/CD8+(or CD3+)/CD137+ or CD137−. The Alexa Fluor 488 geometric mean of the CD137+ population is shown.

Question: For “BCY8945: Non-modified CD137 multimer: 4 x BCY8927, hinge A, SA n=23, attachment Lys(PYA)3 (Ac-C[tBuAla]PK[dA]PYCFADPY[Nle]CA-NH2; linker 1-8-15 via TATA; not fully specified (residue 4); also: tetramer: 4 peptides on central hinge moiety A via spacer SA n=23)”, which “level of free/unbound CD137 receptor on human T cells (BCY7340 binding)” value is on record?
Answer: The value was “dose responsive decrease in unbound CD137 receptor”.
